Data set [1] concerns the target T1, RPA (RPA70/RPA32/RPA14);Rtt105 (Saccharomyces cerevisiae;Saccharomyces …, UniProt P22336;P26754;P26755;P40063 1-621;1-273;1-122;1-208, |). In words: fluorescence anisotropy; Rtt105 1:1; 5 mM MgCl2; stoichiometric, apparent Kd; EMSA: 25 mM Tris-Cl pH 7.5, 200 mM NaCl, 5 mM MgCl2, 5% glycerol, 0.05% Tween-20, 25 C; anisotropy/FRET: 30 mM HEPES pH 7.8, 100 mM KCl, 6% glycerol, 5 mM MgCl2, 1 mM bME, 23 C (stopped flow 25 C). As to conditions: protein: recombinant;recombinant; tags: ;; copies: 1;1;1;1.

The target in data set [2] is T2, RPA (RPA70/RPA32/RPA14) (Saccharomyces cerevisiae, UniProt P22336;P26754;P26755 1-621;1-273;1-122). In words: fluorescence anisotropy; no Rtt105; 5 mM MgCl2; stoichiometric, apparent Kd; EMSA: 25 mM Tris-Cl pH 7.5, 200 mM NaCl, 5 mM MgCl2, 5% glycerol, 0.05% Tween-20, 25 C; anisotropy/FRET: 30 mM HEPES pH 7.8, 100 mM KCl, 6% glycerol, 5 mM MgCl2, 1 mM bME, 23 C (stopped flow 25 C). As to conditions: protein: recombinant; copies: 1;1;1. Background: In fluorescence polarisation assays a small probe gives low polarisation when free and higher when bound to something large.
T2 sequence (P22336 whole entry, chain 1 of 3): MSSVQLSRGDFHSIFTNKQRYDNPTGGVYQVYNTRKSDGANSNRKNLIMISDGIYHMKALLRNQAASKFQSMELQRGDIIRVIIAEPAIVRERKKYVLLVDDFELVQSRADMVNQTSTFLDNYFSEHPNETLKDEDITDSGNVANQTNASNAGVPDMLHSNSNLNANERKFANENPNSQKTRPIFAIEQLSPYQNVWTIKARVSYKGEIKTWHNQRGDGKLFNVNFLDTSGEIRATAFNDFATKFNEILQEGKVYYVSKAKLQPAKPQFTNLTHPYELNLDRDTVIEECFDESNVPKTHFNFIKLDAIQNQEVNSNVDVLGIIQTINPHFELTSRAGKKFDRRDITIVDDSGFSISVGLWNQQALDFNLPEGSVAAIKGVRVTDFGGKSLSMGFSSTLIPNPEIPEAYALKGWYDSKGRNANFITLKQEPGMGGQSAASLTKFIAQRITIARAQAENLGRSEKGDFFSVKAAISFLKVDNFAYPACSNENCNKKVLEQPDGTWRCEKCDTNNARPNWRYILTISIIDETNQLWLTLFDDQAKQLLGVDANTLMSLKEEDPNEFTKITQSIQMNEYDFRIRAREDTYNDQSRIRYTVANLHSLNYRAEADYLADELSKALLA
T2 sequence (P26754 whole entry, chain 2 of 3): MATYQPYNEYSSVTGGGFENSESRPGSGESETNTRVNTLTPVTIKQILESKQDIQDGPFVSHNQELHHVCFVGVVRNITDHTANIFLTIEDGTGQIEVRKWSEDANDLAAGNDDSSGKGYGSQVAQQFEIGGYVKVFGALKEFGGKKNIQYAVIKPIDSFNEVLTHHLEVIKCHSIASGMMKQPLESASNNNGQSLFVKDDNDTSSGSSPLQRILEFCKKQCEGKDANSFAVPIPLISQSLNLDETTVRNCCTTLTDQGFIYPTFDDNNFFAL
T2 sequence (P26755 whole entry, chain 3 of 3): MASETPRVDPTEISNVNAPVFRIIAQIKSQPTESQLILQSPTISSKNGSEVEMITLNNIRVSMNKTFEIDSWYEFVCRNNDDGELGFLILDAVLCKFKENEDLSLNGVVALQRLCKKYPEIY

Data set [3] concerns the target T3, RPA-DBD-D-Cy3;Rtt105-Cy5 (C13S) (Saccharomyces cerevisiae;Saccharomyces …, UniProt P22336;P26754;P26755;P40063 1-621;1-273;1-122;1-208, |C13S). In words: FRET titration; ssDNA-induced remodeling of preformed RPA-Rtt105 (200 nM each); EMSA: 25 mM Tris-Cl pH 7.5, 200 mM NaCl, 5 mM MgCl2, 5% glycerol, 0.05% Tween-20, 25 C; anisotropy/FRET: 30 mM HEPES pH 7.8, 100 mM KCl, 6% glycerol, 5 mM MgCl2, 1 mM bME, 23 C (stopped flow 25 C). As to conditions: protein: recombinant;recombinant; tags: Cy3 on DBD-D via 4AZP;Cy5 on Cys12; copies: 1;1;1;1. (In EMSA bound probe runs differently from free probe, usually more slowly.)

Data set [4] deals with T3, RPA-DBD-D-Cy3;Rtt105-Cy5 (C13S). Nature of the data set: FRET titration; ssDNA-induced Rtt105 release from preformed RPA-Rtt105 (200 nM each); EMSA: 25 mM Tris-Cl pH 7.5, 200 mM NaCl, 5 mM MgCl2, 5% glycerol, 0.05% Tween-20, 25 C; anisotropy/FRET: 30 mM HEPES pH 7.8, 100 mM KCl, 6% glycerol, 5 mM MgCl2, 1 mM bME, 23 C (stopped flow 25 C). As to conditions: protein: recombinant;recombinant; tags: Cy3 on DBD-D via 4AZP;Cy5 on Cys12; copies: 1;1;1;1.

For data set [5], the target named is T1, RPA (RPA70/RPA32/RPA14);Rtt105. Nature of the data set: SEC; [RPA]2-(dT)70 without Rtt105, plus Rtt105-RPA-(dT)70; EMSA: 25 mM Tris-Cl pH 7.5, 200 mM NaCl, 5 mM MgCl2, 5% glycerol, 0.05% Tween-20, 25 C; anisotropy/FRET: 30 mM HEPES pH 7.8, 100 mM KCl, 6% glycerol, 5 mM MgCl2, 1 mM bME, 23 C (stopped flow 25 C). As to conditions: protein: recombinant;recombinant; tags: ;; copies: 1;1;1;1. (Size exclusion chromatography separates by hydrodynamic size, large species first.)

In data set [6] the target is T2, RPA (RPA70/RPA32/RPA14). In words: fluorescence anisotropy; ~2 RPA per DNA; EMSA: 25 mM Tris-Cl pH 7.5, 200 mM NaCl, 5 mM MgCl2, 5% glycerol, 0.05% Tween-20, 25 C; anisotropy/FRET: 30 mM HEPES pH 7.8, 100 mM KCl, 6% glycerol, 5 mM MgCl2, 1 mM bME, 23 C (stopped flow 25 C). As to conditions: protein: recombinant; copies: 1;1;1.

Experimental findings from article PMC9440123, “Rtt105 regulates RPA function by configurationally stapling the flexible domains” (Nature Communications, 2022) are described below.

T1 sequence (P22336 whole entry, chain 1 of 4): as the sequence (P22336 whole entry, chain 1 of 3) above
T1 sequence (P26754 whole entry, chain 2 of 4): as the sequence (P26754 whole entry, chain 2 of 3) above
T1 sequence (P26755 whole entry, chain 3 of 4): as the sequence (P26755 whole entry, chain 3 of 3) above
T1 sequence (P40063 whole entry, chain 4 of 4): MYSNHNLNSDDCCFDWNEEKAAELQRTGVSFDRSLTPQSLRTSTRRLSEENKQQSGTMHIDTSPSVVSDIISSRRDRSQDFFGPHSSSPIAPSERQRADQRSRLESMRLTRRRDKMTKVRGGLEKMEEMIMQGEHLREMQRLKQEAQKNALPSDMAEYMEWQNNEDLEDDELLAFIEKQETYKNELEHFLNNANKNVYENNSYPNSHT
T3 sequence (P22336 whole entry, chain 1 of 4): as the sequence (P22336 whole entry, chain 1 of 3) above
T3 sequence (P26754 whole entry, chain 2 of 4): as the sequence (P26754 whole entry, chain 2 of 3) above
T3 sequence (P26755 whole entry, chain 3 of 4): as the sequence (P26755 whole entry, chain 3 of 3) above
T3 sequence (P40063 whole entry C13S, chain 4 of 4): as the sequence (P40063 whole entry, chain 4 of 4) above, with C13S counted along it

B1: FAM-(dT)35 (ssDNA)
DNA: TTTTTTTTTTTTTTTTTTTTTTTTTTTTTTTTTTT
For B1, the Kd in data set [1] came to 2.4 ± 1.2 nM; with RPA (RPA70/RPA32/RPA14) [2] it was 4 ± 1.3 nM.

B2: (dT)35 (ssDNA)
DNA: TTTTTTTTTTTTTTTTTTTTTTTTTTTTTTTTTTT
For the molecule B2, the “apparent K (half saturation)” value in data set [3] was 130 ± 10.5 nM.

B3: (dT)70 (ssDNA)
DNA: TTTTTTTTTTTTTTTTTTTTTTTTTTTTTTTTTTTTTTTTTTTTTTTTTTTTTTTTTTTTTTTTTTTTTT
B3: the “apparent K (half saturation)” value in data set [4] stood at 42.8 ± 0.37 nM. Moreover, the binding result (in data set [5]; in the data set with RPA (RPA70/RPA32/RPA14) [6]) was “binds” each time.
